# Data reported in the supplement of paper PMC10567573.
# B1: ANKRD9 (parent)
# chain: VGAAGSARQELLGDRPRWQRLLGE
# B2: KLHL14 (parent)
# chain: NETGYLSSVECYNLETNEWRYVSS
# Variants of: B1
# Assay: protein stability index of a GFP-peptide fusion (GPS, HEK-293T) (PSI 1-6); higher = more stable
# Conditions: c terminus: a fixed tail appended
# 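Also: lentivirally expressed fusions sorted by FACS into six bins by GFP to DsRed ratio, PSI derived from sequencing read proportions per bin multiplied by bin number.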
row,Variant,protein stability index
1,VGAAGSARQELLGDRPRWQRLLYE,2.88
2,VGAAGSARQELLGDRPRWQRLLFE,2.71
3,VGAAGSARQELLGDRPRWQRLLWE,2.64
4,VGAAGSARQELLGDRPRWQRLLTE,2.98
5,VGAAGSARQELLGDRPRWQRLLLE,3.58
6,VGAAGSARQELLGDRPRWQRLLHE,2.61
7,VGAAGSARQELLGDRPRWQRLLCE,2.88
8,VGAAGSARQELLGDRPRWQRLLEE,3.39
9,VGAAGSARQELLGDRPRWQRLLAE,3.1
10,VGAAGSARQELLGDRPRWQRLLVE,2.78
11,VGAAGSARQELLGDRPRWQRLLKE,3.19
12,VGAAGSARQELLGDRPRWQRLLSE,4.39
13,VGAAGSARQELLGDRPRWQRLLME,3.23
14,VGAAGSARQELLGDRPRWQRLLIE,2.88
15,VGAAGSARQELLGDRPRWQRLLRE,2.99
16,VGAAGSARQELLGDRPRWQRLLNE,3.12
17,VGAAGSARQELLGDRPRWQRLLPE,3.22
18,VGAAGSARQELLGDRPRWQRLLDE,3.84
19,VGAAGSARQELLGDRPRWQRLLQE,3.4
20,VGAAGSARQELLGDRPRWQRILGE,2.93
21,VGAAGSARQELLGDRPRWQRVLGE,3.67
22,VGAAGSARQELLGDRPRWQRHLGE,2.86
23,VGAAGSARQELLGDRPRWQRGLGE,2.93
24,VGAAGSARQELLGDRPRWQRDLGE,4.72
25,VGAAGSARQELLGDRPRWQRTLGE,3.13
26,VGAAGSARQELLGDRPRWQRQLGE,3.32

row,Variant,protein stability index
1,VGAAGSARQELLGDRPRWQRNLGE,3.71
2,VGAAGSARQELLGDRPRWQRYLGE,2.28
3,VGAAGSARQELLGDRPRWQRALGE,3.28
4,VGAAGSARQELLGDRPRWQRELGE,4.67
5,VGAAGSARQELLGDRPRWQRWLGE,3.23
6,VGAAGSARQELLGDRPRWQRSLGE,4.52
7,VGAAGSARQELLGDRPRWQRCLGE,3.75
8,VGAAGSARQELLGDRPRWQRRLGE,3.11
9,VGAAGSARQELLGDRPRWQRKLGE,4
10,VGAAGSARQELLGDRPRWQRFLGE,2.68
11,VGAAGSARQELLGDRPRWQRMLGE,3.03
12,VGAAGSARQELLGDRPRWQRLIGE,3.18
13,VGAAGSARQELLGDRPRWQRLCGE,3.35
14,VGAAGSARQELLGDRPRWQRLKGE,3.57
15,VGAAGSARQELLGDRPRWQRLTGE,3.69
16,VGAAGSARQELLGDRPRWQRLVGE,3.68
17,VGAAGSARQELLGDRPRWQRLPGE,3.77
18,VGAAGSARQELLGDRPRWQRLHGE,3.53
19,VGAAGSARQELLGDRPRWQRLDGE,4.11
20,VGAAGSARQELLGDRPRWQRLGGE,3.31
21,VGAAGSARQELLGDRPRWQRLMGE,2.28
22,VGAAGSARQELLGDRPRWQRLAGE,3.43
23,VGAAGSARQELLGDRPRWQRLNGE,3.13
24,VGAAGSARQELLGDRPRWQRLQGE,3.64
25,VGAAGSARQELLGDRPRWQRLSGE,3.96
26,VGAAGSARQELLGDRPRWQRLEGE,3.87

row,Variant,protein stability index
1,VGAAGSARQELLGDRPRWQRLFGE,2.93
2,VGAAGSARQELLGDRPRWQRLWGE,2.96
3,VGAAGSARQELLGDRPRWQRLYGE,2.42
4,VGAAGSARQELLGDRPRWQRLRGE,3.67
5,VGAAGSARQELLGDRPRWQRLLGI,2.27
6,VGAAGSARQELLGDRPRWQRLLGN,3.17
7,VGAAGSARQELLGDRPRWQRLLGP,2.75
8,VGAAGSARQELLGDRPRWQRLLGL,2.38
9,VGAAGSARQELLGDRPRWQRLLGT,3
10,VGAAGSARQELLGDRPRWQRLLGM,3.34
11,VGAAGSARQELLGDRPRWQRLLGH,2.96
12,VGAAGSARQELLGDRPRWQRLLGS,2.77
13,VGAAGSARQELLGDRPRWQRLLGK,3.7
14,VGAAGSARQELLGDRPRWQRLLGQ,2.63
15,VGAAGSARQELLGDRPRWQRLLGV,2.45
16,VGAAGSARQELLGDRPRWQRLLGD,3.13
17,VGAAGSARQELLGDRPRWQRLLGG,3.2
18,VGAAGSARQELLGDRPRWQRLLGY,2.37
19,VGAAGSARQELLGDRPRWQRLLGR,3.26
20,VGAAGSARQELLGDRPRWQRLLGA,3
21,VGAAGSARQELLGDRPRWQRLLGC,2.1
22,VGAAGSARQELLGDRPRWQRLLGW,2.33
23,VGAAGSARQELLGDRPRWQRLLGF,2.68
24,VGAAGSARQELLGDRPRSQRLLGE,4.2
25,VGAAGSARQELLGDRPRPQRLLGE,4.98
26,VGAAGSARQELLGDRPRGQRLLGE,5.32

row,Variant,protein stability index
1,VGAAGSARQELLGDRPRQQRLLGE,4.1
2,VGAAGSARQELLGDRPRFQRLLGE,3.54
3,VGAAGSARQELLGDRPRMQRLLGE,3.57
4,VGAAGSARQELLGDRPRHQRLLGE,4.14
5,VGAAGSARQELLGDRPRNQRLLGE,4.11
6,VGAAGSARQELLGDRPRTQRLLGE,4.63
7,VGAAGSARQELLGDRPRAQRLLGE,4.38
8,VGAAGSARQELLGDRPRLQRLLGE,4.36
9,VGAAGSARQELLGDRPRRQRLLGE,4.93
10,VGAAGSARQELLGDRPRDQRLLGE,4.63
11,VGAAGSARQELLGDRPRYQRLLGE,3.78
12,VGAAGSARQELLGDRPRVQRLLGE,4.4
13,VGAAGSARQELLGDRPRKQRLLGE,4.64
14,VGAAGSARQELLGDRPREQRLLGE,4.45
15,VGAAGSARQELLGDRPWWQRLLGE,2.61
16,VGAAGSARQELLGDRPYWQRLLGE,2.37
17,VGAAGSARQELLGDRPRWERLLGE,2.58
18,VGAAGSARQELLGDRPRWPRLLGE,3.79
19,VGAAGSARQELLGDRPRWGRLLGE,2.94
20,VGAAGSARQELLGDRPRWNRLLGE,3.94
21,VGAAGSARQELLGDRPRWTRLLGE,2.49
22,VGAAGSARQELLGDRPRWIRLLGE,2.98
23,VGAAGSARQELLGDRPRWVRLLGE,2.9
24,VGAAGSARQELLGDRPRWCRLLGE,3.27
25,VGAAGSARQELLGDRPRWFRLLGE,2.51
26,VGAAGSARQELLGDRPRWMRLLGE,3.26

row,Variant,protein stability index
1,VGAAGSARQELLGDRPRWLRLLGE,2.56
2,VGAAGSARQELLGDRPRWWRLLGE,2.81
3,VGAAGSARQELLGDRPRWHRLLGE,3.14
4,VGAAGSARQELLGDRPRWDRLLGE,2.83
5,VGAAGSARQELLGDRPRWYRLLGE,2.59
6,VGAAGSARQELLGDRPRWARLLGE,2.15
7,VGAAGSARQELLGDRPRWSRLLGE,2.91
8,VGAAGSARQELLGDRPRWQELLGE,2.18
9,VGAAGSARQELLGDRPRWQKLLGE,2.71
10,VGAAGSARQELLGDRPRWQLLLGE,2.72
11,VGAAGSARQELLGDRPRWQHLLGE,2.52
12,VGAAGSARQELLGDRPRWQQLLGE,2.68
13,VGAAGSARQELLGDRPRWQGLLGE,2.74
14,VGAAGSARQELLGDRPRWQDLLGE,1.25
15,VGAAGSARQELLGDRPRWQYLLGE,2.62
16,VGAAGSARQELLGDRPRWQVLLGE,2.81
17,VGAAGSARQELLGDRPRWQILLGE,2.07
18,VGAAGSARQELLGDRPRWQTLLGE,2.67
19,VGAAGSARQELLGDRPRWQALLGE,2.58
20,VGAAGSARQELLGDRPRWQPLLGE,2.19
21,VGAAGSARQELLGDRPRWQMLLGE,2.81
22,VGAAGSARQELLGDRPRWQNLLGE,3.46
23,VGAAGSARQELLGDRPRWQWLLGE,3.32
24,VGAAGSARQELLGDRPRWQSLLGE,2.87
25,VGAAGSARQELLGDRPRWQCLLGE,2.71
26,VGAAGSARQELLGDRPRWQFLLGE,3.28

# Variants of: B2
# Assay: as above
# Conditions: c terminus: a fixed tail appended
row,Variant,protein stability index
1,YETGYLSSVECYNLETNEWRYVSS,2.79
2,EETGYLSSVECYNLETNEWRYVSS,3.95
3,FETGYLSSVECYNLETNEWRYVSS,2.63
4,QETGYLSSVECYNLETNEWRYVSS,3.31
5,HETGYLSSVECYNLETNEWRYVSS,3.44
6,KETGYLSSVECYNLETNEWRYVSS,3.55
7,PETGYLSSVECYNLETNEWRYVSS,3.49
8,RETGYLSSVECYNLETNEWRYVSS,2.55
9,GETGYLSSVECYNLETNEWRYVSS,2.71
10,LETGYLSSVECYNLETNEWRYVSS,3.04
11,VETGYLSSVECYNLETNEWRYVSS,3.3
12,IETGYLSSVECYNLETNEWRYVSS,2.43
13,CETGYLSSVECYNLETNEWRYVSS,2.41
14,AETGYLSSVECYNLETNEWRYVSS,3.05
15,DETGYLSSVECYNLETNEWRYVSS,3.23
16,METGYLSSVECYNLETNEWRYVSS,2.18
17,SETGYLSSVECYNLETNEWRYVSS,3.69
18,WETGYLSSVECYNLETNEWRYVSS,1.71
19,TETGYLSSVECYNLETNEWRYVSS,2.83
20,NETAYLSSVECYNLETNEWRYVSS,3.75

row,Variant,protein stability index
1,NEAGYLSSVECYNLETNEWRYVSS,3.3
2,NECGYLSSVECYNLETNEWRYVSS,2.8
3,NEIGYLSSVECYNLETNEWRYVSS,3.4
4,NEFGYLSSVECYNLETNEWRYVSS,2.45
5,NEDGYLSSVECYNLETNEWRYVSS,4.12
6,NEKGYLSSVECYNLETNEWRYVSS,2.67
7,NEMGYLSSVECYNLETNEWRYVSS,2.78
8,NELGYLSSVECYNLETNEWRYVSS,3.08
9,NEWGYLSSVECYNLETNEWRYVSS,2.53
10,NEEGYLSSVECYNLETNEWRYVSS,3.53
11,NERGYLSSVECYNLETNEWRYVSS,2.96
12,NEHGYLSSVECYNLETNEWRYVSS,3.12
13,NESGYLSSVECYNLETNEWRYVSS,3.4
14,NEGGYLSSVECYNLETNEWRYVSS,3.01
15,NEVGYLSSVECYNLETNEWRYVSS,2.92
16,NENGYLSSVECYNLETNEWRYVSS,3.78
17,NEQGYLSSVECYNLETNEWRYVSS,3.4
18,NEPGYLSSVECYNLETNEWRYVSS,3.85
19,NEYGYLSSVECYNLETNEWRYVSS,3.21
20,NITGYLSSVECYNLETNEWRYVSS,2.37

row,Variant,protein stability index
1,NVTGYLSSVECYNLETNEWRYVSS,2.51
2,NPTGYLSSVECYNLETNEWRYVSS,2.72
3,NRTGYLSSVECYNLETNEWRYVSS,2.49
4,NDTGYLSSVECYNLETNEWRYVSS,3.52
5,NNTGYLSSVECYNLETNEWRYVSS,2.78
6,NGTGYLSSVECYNLETNEWRYVSS,2.43
7,NHTGYLSSVECYNLETNEWRYVSS,2.02
8,NFTGYLSSVECYNLETNEWRYVSS,1.72
9,NLTGYLSSVECYNLETNEWRYVSS,2.09
10,NATGYLSSVECYNLETNEWRYVSS,2.68
11,NQTGYLSSVECYNLETNEWRYVSS,2.35
12,NSTGYLSSVECYNLETNEWRYVSS,2.78
13,NTTGYLSSVECYNLETNEWRYVSS,2.67
14,NYTGYLSSVECYNLETNEWRYVSS,1.88
15,NWTGYLSSVECYNLETNEWRYVSS,3.64
16,NKTGYLSSVECYNLETNEWRYVSS,2.69
17,NCTGYLSSVECYNLETNEWRYVSS,2.7
18,NMTGYLSSVECYNLETNEWRYVSS,2.55
